Residue numbers refer to the chain shown, from its start. Values joined by “and” are separate entries in the source; they are usually repeats but may differ in a detail not shown here. Identical values can stand only once.

Here are results for 33 molecules from patent US20250277020A1 (Boehringer Ingelheim, published 2025).

Assay [1] has as its target T1, Full-length human CTGF (human, UniProt P29279 27-349).
T1 construct: Corresponds to NCBI NP_001892.1 with the signal peptide omitted; purchased from R&D Systems; also called hCTGF full length; full length CTGF
T1 sequence: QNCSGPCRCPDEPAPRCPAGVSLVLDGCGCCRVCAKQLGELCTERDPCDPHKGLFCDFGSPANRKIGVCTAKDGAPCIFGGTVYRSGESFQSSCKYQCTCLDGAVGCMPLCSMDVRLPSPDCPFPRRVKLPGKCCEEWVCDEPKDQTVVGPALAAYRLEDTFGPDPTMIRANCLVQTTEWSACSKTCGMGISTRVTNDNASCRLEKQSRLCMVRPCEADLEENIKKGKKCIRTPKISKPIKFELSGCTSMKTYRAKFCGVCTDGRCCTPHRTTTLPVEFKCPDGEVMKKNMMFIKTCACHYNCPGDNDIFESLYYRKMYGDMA
In words: SPR Biacore 8K+, mAb captured on Protein A/G, full length hCTGF as analyte. How it is done: (§1) Binding affinity of anti-CTGF antibodies H1 (having the light chain of SEQ ID NO: 22 and the heavy chain of SEQ ID NO: 23), H2 (having the light chain of SEQ ID NO: 24 and the heavy chain of SEQ ID NO: 25), F1, and A97 for full length human CTGF or human CTGF N-terminal fragment are determined by surface plasmon resonance (SPR).
(§2) Surface plasmon resonance is conducted using a Biacore 8K+ (Cytiva). Protein A/G (Thermo Scientific) is amine coupled to CM5 Sensor S Chip (Cytiva). For binding to hCTGF N-terminal fragment (NTF), anti-CTGF antibody (1 μg/ml) is captured on the Protein A/G surface, followed by various concentrations of antigen (100 nM to 0.78 nM; 2-fold dilutions). For binding to hCTGF full length, anti-CTGF antibody (0.2 μg/ml) is captured followed by various concentrations of antigen (10 nM to 0.156 nM; 2-fold dilutions).

Assay [2] concerns the target T2, Human N-terminal fragment of CTGF (CTGF-NTF) (human, UniProt P29279 27-180).
T2 construct: Recombinantly expressed; also called hCTGF NTF; CTGF N-terminal fragment
T2 chain: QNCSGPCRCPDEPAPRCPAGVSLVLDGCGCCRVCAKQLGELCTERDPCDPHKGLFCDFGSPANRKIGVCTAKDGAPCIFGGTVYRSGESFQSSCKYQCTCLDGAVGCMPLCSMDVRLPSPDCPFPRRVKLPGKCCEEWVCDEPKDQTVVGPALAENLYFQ
In words: SPR Biacore 8K+, mAb captured on Protein A/G, hCTGF NTF as analyte. How it is done: as §1, §2
A general note: Surface plasmon resonance follows binding to a sensor surface in real time, without labels.

For assay [3], the target named is T1, Full-length human CTGF. Put plainly: SPR, full length CTGF.

B1: Antibody H1 (antibody, human IgG1, lambda, V domains shown)
VH: EVTLKESGPVLVKPTETLTLTCTVSGFSLSTFGVHWIRQPPGKGLEWLGVIWRRGGTDYNAAFMSRLTISKDTSKSQVVFTMTNMDPVDTATYYCARDGGFDYWGQGTTVTVSS
VL: ETVVTQEPSLTVSPGGTVTLTCRSSIGAVTTSNYANWVQQKPGQAFRGLIGGTSNRAPWTPARFSGSLLGGKAALTLSGVQPEDEAEYYCALWYSTHYVFGGGTKLTVLG
notes: Comparator anti-CTGF antibody, full length
The Kd is the equilibrium constant for the complex coming apart. What is called koff is the first-order rate constant of dissociation. Broadly, the kon is the second-order rate constant of association. High values mean faster complex formation, low ones slower complex formation. B1: in the assay with Full-length human CTGF [1], the Kd was 0.0983 nM and 0.098 nM; the koff is 0.000671 s⁻¹; the kon is 6.83e+06 M⁻¹ s⁻¹. In addition, in assay [2], the equilibrium dissociation constant (Kd) is 8.82 nM and 8.8 nM; the off-rate constant (koff) is 0.0107 s⁻¹; the kon is 1.22e+06 M⁻¹ s⁻¹.

B2: A105 (antibody, human IgG1, kappa, L234A L235A)
light: DIVMTQTPLSLSVSLGDQASISCKSSQSIVHYNGNTYLEWYLQKPGQSPQLLIYKVSSRASGVPDRFSGSGSGTDFTLKISRVEAEDLGVYYCFQGSHFPLTFGQGTKLEIKRTVAAPSVFIFPPSDEQLKSGTASVVCLLNNFYPREAKVQWKVDNALQSGNSQESVTEQDSKDSTYSLSSTLTLSKADYEKHKVYACEVTHQGLSSPVTKSFNRGEC
heavy: not shown
On to B2, for which the Kd in the assay with Full-length human CTGF [3] worked out at 0.42 nM.

B3: A117 (antibody, human IgG1, kappa, L234A L235A)
light: B2 light with G34E, N35K
heavy: not shown
B3 displayed a Kd with Full-length human CTGF [3] of 0.81 nM.

B4: A110 (antibody, human IgG1, kappa, L234A L235A)
light: B2 light
heavy: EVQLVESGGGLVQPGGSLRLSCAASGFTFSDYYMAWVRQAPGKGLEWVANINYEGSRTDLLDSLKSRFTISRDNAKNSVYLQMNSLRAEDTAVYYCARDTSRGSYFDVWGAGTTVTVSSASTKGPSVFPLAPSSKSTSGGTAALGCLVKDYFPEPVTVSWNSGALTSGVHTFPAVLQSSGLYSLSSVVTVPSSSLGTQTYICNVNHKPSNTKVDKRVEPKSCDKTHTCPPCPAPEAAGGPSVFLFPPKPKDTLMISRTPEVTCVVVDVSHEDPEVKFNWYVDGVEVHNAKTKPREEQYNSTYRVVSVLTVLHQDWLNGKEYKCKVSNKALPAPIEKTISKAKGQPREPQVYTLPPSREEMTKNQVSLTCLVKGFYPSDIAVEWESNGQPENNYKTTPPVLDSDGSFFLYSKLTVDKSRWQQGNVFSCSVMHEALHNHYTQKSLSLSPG
B4 registered a Kd with Full-length human CTGF [3] of 0.45 nM.

B5: A109 (antibody, human IgG1, kappa, L234A L235A)
light: B2 light
heavy: not shown
In the assay with Full-length human CTGF [3], B5 gave a dissociation constant (Kd) of 0.44 nM. This Kd and that of the molecule before are within 1.5-fold of each other.

B6: A113 (antibody, human IgG1, kappa, L234A L235A)
light: B2 light with G34E, N35K
heavy: not shown
B6: the affinity with Full-length human CTGF [3], expressed as Kd, was 0.76 nM.

B7: A107 (antibody, human IgG1, kappa, L234A L235A)
light: B2 light
heavy: not shown
As for B7, the Kd with Full-length human CTGF [3] worked out at 0.37 nM. This Kd lies about 2.1-fold lower than the previous one.

B8: A116 (antibody, human IgG1, kappa, L234A L235A)
light: B2 light with G34E, N35K
heavy: not shown
As to B8, the affinity in the assay with Full-length human CTGF [3], expressed as Kd, was 0.69 nM.

B9: A111 (antibody, human IgG1, kappa, L234A L235A)
light: B2 light
heavy: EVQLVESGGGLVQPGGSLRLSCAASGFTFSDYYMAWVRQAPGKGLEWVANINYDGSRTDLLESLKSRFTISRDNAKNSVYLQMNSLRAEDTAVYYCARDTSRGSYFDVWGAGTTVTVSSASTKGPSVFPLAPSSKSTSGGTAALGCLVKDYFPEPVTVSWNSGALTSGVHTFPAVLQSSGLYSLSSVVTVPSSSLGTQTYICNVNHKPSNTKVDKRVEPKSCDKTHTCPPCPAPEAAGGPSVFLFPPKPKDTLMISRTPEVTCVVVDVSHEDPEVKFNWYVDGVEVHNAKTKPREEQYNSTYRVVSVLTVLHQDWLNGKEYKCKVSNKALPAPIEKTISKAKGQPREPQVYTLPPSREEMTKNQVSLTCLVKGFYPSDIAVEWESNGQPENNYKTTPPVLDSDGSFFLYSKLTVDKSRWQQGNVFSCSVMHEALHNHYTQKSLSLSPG
B9: the Kd with Full-length human CTGF [3] came out at 0.51 nM.

B10: A114 (antibody, human IgG1, kappa, L234A L235A)
light: B2 light with G34E, N35K
heavy: not shown
For B10, the affinity with Full-length human CTGF [3], expressed as Kd, was 0.75 nM.

B11: A119 (antibody, human IgG1, kappa, L234A L235A)
light: B2 light with G34E, N35K
heavy: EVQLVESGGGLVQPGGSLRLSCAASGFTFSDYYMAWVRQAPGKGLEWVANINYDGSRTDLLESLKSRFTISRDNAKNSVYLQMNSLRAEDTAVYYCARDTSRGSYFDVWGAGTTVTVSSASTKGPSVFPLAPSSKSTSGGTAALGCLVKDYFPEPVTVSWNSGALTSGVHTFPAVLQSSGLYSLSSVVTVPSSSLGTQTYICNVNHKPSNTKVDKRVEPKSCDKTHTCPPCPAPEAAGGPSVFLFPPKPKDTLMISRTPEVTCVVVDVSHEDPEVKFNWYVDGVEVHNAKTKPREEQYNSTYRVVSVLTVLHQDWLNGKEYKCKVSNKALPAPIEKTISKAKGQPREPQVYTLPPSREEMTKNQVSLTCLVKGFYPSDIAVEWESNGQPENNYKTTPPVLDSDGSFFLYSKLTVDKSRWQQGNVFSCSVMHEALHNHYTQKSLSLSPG
B11 came in with a Kd with Full-length human CTGF [3] of 0.91 nM. The Kd values of the last two molecules are within 1.5-fold of each other.

B12: A112 (antibody, human IgG1, kappa, L234A L235A)
light: B2 light
heavy: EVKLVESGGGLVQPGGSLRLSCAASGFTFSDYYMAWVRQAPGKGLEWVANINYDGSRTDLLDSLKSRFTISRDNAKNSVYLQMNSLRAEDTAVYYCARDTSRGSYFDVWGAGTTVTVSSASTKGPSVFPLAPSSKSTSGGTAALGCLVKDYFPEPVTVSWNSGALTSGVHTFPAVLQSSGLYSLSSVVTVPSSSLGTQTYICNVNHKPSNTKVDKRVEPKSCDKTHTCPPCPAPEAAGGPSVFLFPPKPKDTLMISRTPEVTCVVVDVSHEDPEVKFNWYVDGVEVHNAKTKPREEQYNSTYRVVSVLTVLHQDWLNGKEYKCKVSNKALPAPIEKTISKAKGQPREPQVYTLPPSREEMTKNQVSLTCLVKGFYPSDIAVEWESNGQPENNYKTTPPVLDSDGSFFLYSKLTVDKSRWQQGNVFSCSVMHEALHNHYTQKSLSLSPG
B12 displayed a Kd with Full-length human CTGF [3] of 0.48 nM.

B13: A120 (antibody, human IgG1, kappa, L234A L235A)
light: B2 light with G34E, N35K
heavy: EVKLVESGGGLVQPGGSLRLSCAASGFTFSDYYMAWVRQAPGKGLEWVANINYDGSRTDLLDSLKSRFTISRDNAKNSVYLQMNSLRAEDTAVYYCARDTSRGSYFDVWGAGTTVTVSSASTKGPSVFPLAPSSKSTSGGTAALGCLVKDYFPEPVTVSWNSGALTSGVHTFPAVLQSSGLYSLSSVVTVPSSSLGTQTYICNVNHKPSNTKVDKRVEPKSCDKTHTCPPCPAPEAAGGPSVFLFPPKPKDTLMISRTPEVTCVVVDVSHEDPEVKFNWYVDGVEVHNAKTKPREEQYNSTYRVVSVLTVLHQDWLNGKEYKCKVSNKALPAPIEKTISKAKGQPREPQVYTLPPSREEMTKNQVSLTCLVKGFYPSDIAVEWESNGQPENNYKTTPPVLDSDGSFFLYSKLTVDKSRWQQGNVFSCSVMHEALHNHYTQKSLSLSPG
For B13, the dissociation constant (Kd) in the assay with Full-length human CTGF [3] worked out at 0.84 nM.

B14: A115 (antibody, human IgG1, kappa, L234A L235A)
light: B2 light with G34E, N35K
heavy: not shown
Take B14: in the assay with Full-length human CTGF [3], the Kd worked out at 0.66 nM. The Kd values of the last two molecules are within 1.5-fold of each other.

B15: A106 (antibody, human IgG1, kappa, L234A L235A)
light: B2 light
heavy: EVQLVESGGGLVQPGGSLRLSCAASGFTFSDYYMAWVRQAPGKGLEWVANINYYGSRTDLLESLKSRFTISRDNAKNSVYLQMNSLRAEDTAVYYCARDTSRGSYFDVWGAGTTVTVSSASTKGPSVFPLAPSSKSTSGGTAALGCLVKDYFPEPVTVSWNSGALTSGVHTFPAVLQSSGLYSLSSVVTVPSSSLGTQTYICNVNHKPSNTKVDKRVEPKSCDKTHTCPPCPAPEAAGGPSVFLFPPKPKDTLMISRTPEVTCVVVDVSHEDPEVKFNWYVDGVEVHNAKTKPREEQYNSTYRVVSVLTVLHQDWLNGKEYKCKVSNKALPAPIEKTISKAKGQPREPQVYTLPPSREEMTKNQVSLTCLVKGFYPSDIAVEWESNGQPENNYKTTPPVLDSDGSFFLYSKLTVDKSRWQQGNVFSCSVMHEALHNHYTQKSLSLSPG
B15 came in with a Kd with Full-length human CTGF [3] of 0.43 nM.

B16: A118 (antibody, human IgG1, kappa, L234A L235A)
light: B2 light with G34E, N35K
heavy: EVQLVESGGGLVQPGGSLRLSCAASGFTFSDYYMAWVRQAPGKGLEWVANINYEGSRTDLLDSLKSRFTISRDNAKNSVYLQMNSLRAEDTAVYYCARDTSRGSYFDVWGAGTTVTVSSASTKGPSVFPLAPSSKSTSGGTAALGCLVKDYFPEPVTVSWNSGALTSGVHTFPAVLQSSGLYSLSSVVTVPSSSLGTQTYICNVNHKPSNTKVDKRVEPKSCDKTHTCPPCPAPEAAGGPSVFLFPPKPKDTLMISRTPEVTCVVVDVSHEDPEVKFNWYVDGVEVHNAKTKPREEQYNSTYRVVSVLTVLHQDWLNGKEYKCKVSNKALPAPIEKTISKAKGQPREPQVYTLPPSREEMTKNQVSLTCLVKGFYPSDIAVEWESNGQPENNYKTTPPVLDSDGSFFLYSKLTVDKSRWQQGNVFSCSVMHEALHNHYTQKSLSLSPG
For B16, the Kd in the assay with Full-length human CTGF [3] is 0.81 nM.

B17: A108 (antibody, human IgG1, kappa, L234A L235A)
light: B2 light
heavy: not shown
The molecule B17 registered a Kd with Full-length human CTGF [3] of 0.42 nM.

B18: A98 (antibody, human IgG1, kappa, L234A L235A)
light: VVMTQTPLSLSVSLGDQASISCKSSQSIVHYNGNTYLEWYLQKPGQSPQLLIYKVSSRASGVPDRFSGSGSGTDFTLKISRVEAEDLGVYYCFQGSHFPLTFGQGTKLEIKRTVAAPSVFIFPPSDEQLKSGTASVVCLLNNFYPREAKVQWKVDNALQSGNSQESVTEQDSKDSTYSLSSTLTLSKADYEKHKVYACEVTHQGLSSPVTKSFNRGEC
heavy: not shown
B18 showed a dissociation constant Kd with Full-length human CTGF [3] of 0.12 nM.

B19: A13 (antibody, human IgG1, kappa, L234A L235A)
light: B18 light with G33E, N34K
heavy: not shown
notes: also called antibody A13
Consider B19, for which the Kd in the assay with Full-length human CTGF [3] is 0.25 nM.

B20: A124 (antibody, human IgG1, kappa, L234A L235A, V domains shown)
VH: EVQLVESGGGLVQPGGSLRLSCAASGFTFSDYYMAWVRQAPGKGLEWVANINYYGSRTDLLASLKSRFTISRDNAKNSVYLQMNSLRAEDTAVYYCARDTSRGSYFDVWGAGTTVTVSS
VL: VVMTQTPLSLPVSLGDQASISCRSSQSIVHYNGNTYLEWYLQKPGQSPQLLIYKVSNRDSGVPDRFSGSGSGTDFTLKISRVEAEDLGVYYCFQGSHFPLTFGQGTKLEIKR
B20: in the assay with Full-length human CTGF [3], binding was put at a Kd of 0.25 nM.

B21: A128 (antibody, human IgG1, kappa, L234A L235A)
light: B18 light with S11P, K23R, S57N, A59D
heavy: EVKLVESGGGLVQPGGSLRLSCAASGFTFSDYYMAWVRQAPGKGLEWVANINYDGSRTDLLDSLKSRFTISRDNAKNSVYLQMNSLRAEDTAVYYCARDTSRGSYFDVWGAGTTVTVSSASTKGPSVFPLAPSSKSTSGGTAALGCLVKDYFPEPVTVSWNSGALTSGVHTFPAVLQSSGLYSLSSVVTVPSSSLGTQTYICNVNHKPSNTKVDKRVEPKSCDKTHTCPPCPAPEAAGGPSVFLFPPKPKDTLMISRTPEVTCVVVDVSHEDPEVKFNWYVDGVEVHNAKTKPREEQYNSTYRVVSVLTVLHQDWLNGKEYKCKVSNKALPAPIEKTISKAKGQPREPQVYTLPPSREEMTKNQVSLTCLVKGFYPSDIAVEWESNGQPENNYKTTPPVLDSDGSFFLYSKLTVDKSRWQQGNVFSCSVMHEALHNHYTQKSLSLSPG
notes: humanized from the 15 pM mouse clone; also called humanized antibody A128
On to B21, for which, in the assay with Full-length human CTGF [3], binding was characterised by a dissociation constant (Kd) of 0.27 nM.

B22: A99 (antibody, human IgG1, kappa, L234A L235A)
light: B18 light
heavy: not shown
In the assay with Full-length human CTGF [3], B22 returned a Kd of 0.11 nM.

B23: A101 (antibody, human IgG1, kappa, L234A L235A)
light: B18 light
heavy: not shown
B23 gave a Kd with Full-length human CTGF [3] of 0.17 nM. Compared with the last molecule, the Kd is about 1.5-fold higher.

B24: A100 (antibody, human IgG1, kappa, L234A L235A)
light: B18 light
heavy: not shown
B24 returned an equilibrium dissociation constant (Kd) in the assay with Full-length human CTGF [3] of 0.13 nM.

B25: A122 (antibody, human IgG1, kappa, L234A L235A, V domains shown)
VH: B20 VH with A62E
VL: B20 VL
For the molecule B25, the Kd with Full-length human CTGF [3] is 0.23 nM.

B26: A127 (antibody, human IgG1, kappa, L234A L235A, V domains shown)
VH: B20 VH with Y54D, A62E
VL: B20 VL
The molecule B26 returned a dissociation constant Kd with Full-length human CTGF [3] of 0.28 nM. The Kd values of the last two molecules are within 1.5-fold of each other.

B27: A125 (antibody, human IgG1, kappa, L234A L235A)
light: B18 light with S11P, K23R, S57N, A59D
heavy: not shown
In the assay with Full-length human CTGF [3], B27 yielded a Kd of 0.26 nM. This Kd and that of the molecule before are within 1.5-fold of each other.

B28: A103 (antibody, human IgG1, kappa, L234A L235A)
light: B18 light
heavy: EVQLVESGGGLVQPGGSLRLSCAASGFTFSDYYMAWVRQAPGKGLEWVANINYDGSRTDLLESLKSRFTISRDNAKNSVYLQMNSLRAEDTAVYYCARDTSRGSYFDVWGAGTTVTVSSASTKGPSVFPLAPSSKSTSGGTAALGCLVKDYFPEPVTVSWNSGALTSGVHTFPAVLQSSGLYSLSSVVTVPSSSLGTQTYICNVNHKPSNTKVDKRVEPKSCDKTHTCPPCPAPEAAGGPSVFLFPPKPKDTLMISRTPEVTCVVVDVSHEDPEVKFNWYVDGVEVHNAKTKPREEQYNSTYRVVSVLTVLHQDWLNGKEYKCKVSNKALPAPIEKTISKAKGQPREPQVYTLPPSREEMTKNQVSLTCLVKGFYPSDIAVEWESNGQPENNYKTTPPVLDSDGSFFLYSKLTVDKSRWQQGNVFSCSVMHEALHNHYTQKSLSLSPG
Take B28: the affinity with Full-length human CTGF [3], expressed as Kd, was 0.15 nM. Compared with the last molecule, the Kd is about 1.7-fold lower.

B29: A123 (antibody, human IgG1, kappa, L234A L235A, V domains shown)
VH: B20 VH with Y54E
VL: B20 VL
B29 had a dissociation constant (Kd) with Full-length human CTGF [3] of 0.21 nM. The Kd values of the last two molecules are within 1.5-fold of each other.

B30: A102 (antibody, human IgG1, kappa, L234A L235A)
light: B18 light
heavy: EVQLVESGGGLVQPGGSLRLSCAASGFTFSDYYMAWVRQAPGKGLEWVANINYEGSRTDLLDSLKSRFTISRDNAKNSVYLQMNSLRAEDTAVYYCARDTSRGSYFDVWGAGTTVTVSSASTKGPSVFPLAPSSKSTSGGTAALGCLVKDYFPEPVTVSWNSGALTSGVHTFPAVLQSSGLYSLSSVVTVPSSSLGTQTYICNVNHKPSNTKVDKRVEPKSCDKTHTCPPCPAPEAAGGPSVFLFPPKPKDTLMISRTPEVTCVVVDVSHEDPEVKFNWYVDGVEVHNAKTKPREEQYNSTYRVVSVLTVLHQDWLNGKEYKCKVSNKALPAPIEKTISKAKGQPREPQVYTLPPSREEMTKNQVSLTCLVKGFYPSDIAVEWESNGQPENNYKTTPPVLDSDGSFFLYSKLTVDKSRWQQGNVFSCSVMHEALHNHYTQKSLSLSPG
B30 registered an equilibrium dissociation constant (Kd) with Full-length human CTGF [3] of 0.15 nM.

B31: A121 (antibody, human IgG1, kappa, L234A L235A, V domains shown)
VH: B20 VH with Y54E, A62E
VL: B20 VL
As to B31, the affinity with Full-length human CTGF [3], expressed as Kd, was 0.24 nM. This Kd is about 1.6-fold higher than that of the molecule before.

B32: A104 (antibody, human IgG1, kappa, L234A L235A)
light: B18 light
heavy: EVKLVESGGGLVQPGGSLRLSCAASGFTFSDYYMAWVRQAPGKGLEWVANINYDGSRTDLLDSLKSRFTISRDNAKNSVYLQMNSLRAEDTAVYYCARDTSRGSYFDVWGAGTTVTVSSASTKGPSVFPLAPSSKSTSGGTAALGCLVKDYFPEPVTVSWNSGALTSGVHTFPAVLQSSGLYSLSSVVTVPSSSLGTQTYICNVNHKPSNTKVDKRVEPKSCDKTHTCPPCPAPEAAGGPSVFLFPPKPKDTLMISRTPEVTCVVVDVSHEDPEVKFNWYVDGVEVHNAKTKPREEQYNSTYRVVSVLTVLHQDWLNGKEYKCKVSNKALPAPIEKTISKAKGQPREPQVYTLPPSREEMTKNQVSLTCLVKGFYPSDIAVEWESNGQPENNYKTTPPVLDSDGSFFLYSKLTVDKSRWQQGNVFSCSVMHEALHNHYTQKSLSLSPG
B32 showed a dissociation constant Kd in the assay with Full-length human CTGF [3] of 0.17 nM.

B33: A126 (antibody, human IgG1, kappa, L234A L235A, V domains shown)
VH: B20 VH with Y54E, A62D
VL: B20 VL
B33 had a dissociation constant (Kd) with Full-length human CTGF [3] of 0.27 nM.
